Data reported in patent EP2045266A1 (INSERM (Institut National de la Santé et de la Recherche …, dated 2009).

Target: T1, LexA DNA-binding domain fusion of 4 kDa pro-fragment of human cath-D (human, UniProt P0A7C2 1-202; P07339 21-64, limits assumed)
T1 construct: also called 4 kDa pro-fragment (yeast two-hybrid bait)
T1 sequence (looked up): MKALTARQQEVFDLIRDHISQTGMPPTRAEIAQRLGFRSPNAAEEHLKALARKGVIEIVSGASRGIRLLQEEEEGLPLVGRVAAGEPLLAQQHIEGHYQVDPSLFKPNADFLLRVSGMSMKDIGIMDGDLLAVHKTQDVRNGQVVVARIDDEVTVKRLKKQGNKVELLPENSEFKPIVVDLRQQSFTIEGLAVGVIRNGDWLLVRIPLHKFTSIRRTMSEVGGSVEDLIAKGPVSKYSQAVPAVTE
Test: yeast two-hybrid

binding result: no binding
B1: B42 activation domain fusion of LRP1β (307-479) (yeast two-hybrid clone, pYESTrp2-LRP1β (307-479)) (other, not shown: large carriers)
chain: PSGMPTCRCPTGFTGPKCTQQVCAGYCANNSTCTVNQGNQPQCRCLPGFLGDRCQYRQCSGYCENFGTCQMAADGSRQCRCTAYFEGSRCEVNKCSRCLEGACVVNKQSGDVTCNCTDGRVAPSCLTCVGHCSNGGSCTMNSKMMPECQCPPHMTGPRCEEHVFSQQQPGHIA
notes: also called the clone isolated in the screen
